From patent publication US12178871B2 (priority 2018, dated 2024)

Assays:
[1] = in vivo; cited from earlier work
[2] = tested on: influenza virus subtype A mice-lung adaptive strain FM1; settings: mouse, in vivo
[3] = tested on: mouse lung cancer LL2 cell; assay: LL2 lung cancer tumor-bearing mouse model; type: in vivo; settings: cisplatin 5 mg/kg, tail vein injection once a week
Excerpt: The tumor cells in this model grew rapidly, with tumor volume of 2201.9 mm^3±68.01 mm^3 on the 14th day after the inoculation and the experiment was over. […] As explanation, the cisplatin group is more likely to show efficacy in this model with very rapid cell division.

## polyinosinic-polycytidylic acid with poly-L-lysine and carboxymethyl cellulose [PICLC]
[1]
  fever: 100%
  hypotension: 50%
  myalgia: 50%

## NC(=O)c1ncn([C@@H]2O[C@H](CO)[C@@H](O)[C@H]2O)n1 [Ribavirin]
[2]
  X^2: 1.64

## N.N.[Cl][Pt][Cl] [cisplatin]
[3]
  T/Cb (%): 28.9%
  TV at day 14: 637.79 ± 62.87 mm^3
